Source: patent US20200405833A1 (AFFIMED, published 2020)

Assays:
human EGFR on cells [1] = target: T1, human EGFR on cells (human, UniProt P00533 25-1210); assay: cell-based or functional assay
human EGFR on cells [2] = target: T1, human EGFR on cells; assay: flow cytometry on A-431 cells, 37°C; mean of 4 experiments
[3] = target: T2, CD16A on primary human NK-cells (human, UniProt P08637 17-254); assay: flow cytometry on primary human NK-cells, 37°C, without IgG; mean of 2 experiments
T2 construct: whole, on cells; also called FcγRIIIA
Description: (§1) After the last staining step, the cells were washed again and resuspended in 0.2 mL of FACS buffer containing 2 μg/mL propidium iodide (PI) (Sigma, cat.: P4170) in order to exclude dead cells. The fluorescence of 2-5×10³ living cells was measured using a Millipore Guava EasyCyte flow cytometer (Merck Millipore, Schwalbach, Germany). Mean fluorescence intensities of the cell samples were calculated using Incyte software (Merck Millipore, Schwalbach, Germany). After subtracting the fluorescence intensity values of the cells stained with the secondary and tertiary reagents alone, the values were used for non-linear regression analysis using the GraphPad Prism software (GraphPad Prism version 6.00 for Windows, GraphPad Software, La Jolla Calif. USA). For the calculation of KD, the equation for one-site-binding (hyperbola) was used.
(§2) To assess the impact of physiological concentrations of human IgG on the binding capacity of bispecific EGFR/CD16A antigen-binding proteins, binding assays with several bispecific EGFR/CD16A antigen-binding proteins on primary human NK-cells were performed in presence or absence of 10 mg/mL polyclonal human IgG as exemplarily shown in FIG. 10.

human EGFR on cells [4] = target: T1, human EGFR on cells; assay: cell-based or functional assay; remark: listed apart in the source
human EGFR on cells [5] = target: T1, human EGFR on cells; assay: cell-based or functional assay; remark: listed apart in the source
[6] = target: T2, CD16A on primary human NK-cells; assay: flow cytometry on primary human NK-cells, 37°C, with 10 mg/mL polyclonal human IgG (Gammanorm); with 10 mg/mL polyclonal human IgG (Gammanorm)
CD16A-antigen (ELISA) = target: T3, CD16A-antigen (ELISA); assay: ELISA, coated CD16A-Fc antigen, aTriFlex titrated (His-tagged analyte, Penta-HIS-HRP per paragraph 126)
T3 construct: also called CD16A-Fc
Description: (§3) 96-well ELISA plates (Immuno MaxiSorp; Nunc) were coated overnight at 4° C. with recombinant antigen or antibodies in 100 mM Carbonate-bicarbonate buffer. […] After a blocking step with 3% (w/v) skim milk powder (Merck) dissolved in PBS, serial dilutions of the different antibodies or soluble antigens in PBS containing 0.3% (w/v) skim milk powder were incubated on the plates for 1.5 h at room temperature. After washing three times with 300 μL per well of PBS containing 0.1% (v/v) Tween 20, plates were incubated with detection antibodies for 1 h at room temperature. For the detection of His-tagged analytes, Penta-HIS-HRP (Qiagen) was used at 1:3000 dilution. […] After washing three times with 300 μL per well of PBS containing 0.1% (v/v) Tween 20, plates were incubated with Tetramethylbenzidine (TMB) substrate (Seramun) until colour development was clearly visible. The reaction was stopped through the addition of 100 μL per well of 0.5 M H₂SO₄. The absorbance was measured at 450 nm using a multilabel plate reader (Victor, Perkin Elmer).

EGFR-antigen (ELISA) = target: T4, EGFR-antigen (ELISA); assay: ELISA, coated EGFR-Fc antigen, aTriFlex titrated (His-tagged analyte, Penta-HIS-HRP per paragraph 126)
T4 construct: also called EGFR-Fc
Description: as §3

[7] = target: T2, CD16A on primary human NK-cells; assay: flow cytometry on primary human NK-cells, 37° C., without gammanorm
Description: as §1, §2

EGFR-mFc = target: T5, EGFR-mFc; assay: ELISA, coated EGFR-mFc antigen, Bi-scFv-Fc titrated, bound construct detected with biotinylated CD16-Fc and streptavidin-HRP
T5 construct: Coated at 2.5 µg/mL in ELISA; also called monomeric EGFR-mFc; EGFR-mFc antigen
Description: as §3

huCD16A^RV-His = target: T6, huCD16A^RV-His (human); assay: ELISA, coated EGFR/CD16A Bi-scFv-Fc, soluble huCD16A^RV-His titrated (the concentration axis is that of the antigen), Penta-HIS-HRP per paragraph 126
T6 construct: soluble, His-tagged; also called CD16-His antigen
Description: as §3

[8] = target: T2, CD16A on primary human NK-cells; assay: flow cytometry on primary human NK-cells, 37°C, with 10 mg/mL polyclonal human IgG (Gammanorm); mean of 2 experiments
Description: as §1, §2

Human FcRn (FCGRT/B2M) = target: T7, Human FcRn (FCGRT/B2M) (human, UniProt P55899 24-297; P61769 21-119, biotin-labelled (site not stated)); assay: SPR (Biacore T200), pH 6.0, biotinylated FcRn captured, multi cycle kinetics, 1:1 model
T7 construct: Purchased; also called FcRn (FCGRT/B2M), His-Tag, Biotin-Labeled, (Human) HiP Cat #71283

Mouse FcRn (FCGRT/B2M) = target: T8, Mouse FcRn (FCGRT/B2M) (mouse, UniProt Q61559 22-297; P01887 21-119, biotin-labelled (Avi-Tag)); assay: as above
T8 construct: Purchased; also called murine FcRn; murine FcRn receptor
T8 sequence (looked up): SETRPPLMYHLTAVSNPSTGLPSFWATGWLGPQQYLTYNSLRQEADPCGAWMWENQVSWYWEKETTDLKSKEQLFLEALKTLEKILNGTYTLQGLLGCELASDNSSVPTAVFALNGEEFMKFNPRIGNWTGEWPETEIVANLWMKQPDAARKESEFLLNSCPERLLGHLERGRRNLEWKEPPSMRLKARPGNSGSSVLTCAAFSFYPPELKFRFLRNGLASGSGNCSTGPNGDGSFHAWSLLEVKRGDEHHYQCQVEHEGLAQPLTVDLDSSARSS
T8 sequence (b2m, looked up): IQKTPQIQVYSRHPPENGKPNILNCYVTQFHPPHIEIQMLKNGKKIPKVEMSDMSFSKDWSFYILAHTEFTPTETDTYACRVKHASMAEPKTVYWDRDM
Description: (§4) Binding of EGFR/CD16A antigen-binding proteins to FcRn (human, cynomolgus, murine) was measured on a Biacore T200 Instrument at 25° C. using PBS-T buffer pH 6.0 as running buffer and for dilution (1×Gibco PBS, 0.005% Tween20, titrated to pH 6.0 using 4 M HCl). For this purpose, a Multi Cycle Kinetic experiments was performed using Biotin CAPture Kit (GE Healthcare). For activation of the sensor surface, Biotin CAPture reagent (GE Healthcare) was injected to Flow Cells Fc 1-4 (100 sec, 5 μL/min) resulting in a response of 2100 RU-2800 RU. Biotinylated FcRn of different species were injected to Flow Cell Fc 2 (5 μL/min) resulting in a response of about 8-15 RU. A dilution series of EGFR/CD16A antigen-binding proteins was in (pH 7.4) as running buffer and for dilution. […] Chip was regenerated using Regeneration solution (GE Healthcare) (10 μL/min, Flow cells 1-4, 120 sec). Sensorgrams are referenced by subtraction of zero concentration cycle and subtraction of signals in reference channel Fc 1 (Fc 2-1, Fc 3-1, Fc 4-1). […] Chip was regenerated using Regeneration solution (GE Healthcare) (10 μL/min, Flow cells 1-4, 120 sec). […] Binding kinetics were evaluated by fitting data to 1:1 Binding Model (Rmax and RI locally fitted) using Biacore T200 Evaluation Software.

[9] = target: T9, Cynomolgus FcRn (FCGRT/B2M) (cynomolgus, UniProt Q8SPV9 24-297; Q8SPW0 21-119, biotin-labelled (Avi-Tag)); assay: as above
T9 construct: Purchased; also called FcRn (FCGRT/B2M), Avi-Tag, Biotin-Labeled, (Cynomolgus) Acro Cat #FCM-C82W5
Description: as §4

human EGFR on cells [10] = target: T1, human EGFR on cells; assay: flow cytometry on EGFR-expressing A-431 cells, 37° C.

T9 sequence (Q8SPV9 24-297 limits assumed, chain 1 of 2): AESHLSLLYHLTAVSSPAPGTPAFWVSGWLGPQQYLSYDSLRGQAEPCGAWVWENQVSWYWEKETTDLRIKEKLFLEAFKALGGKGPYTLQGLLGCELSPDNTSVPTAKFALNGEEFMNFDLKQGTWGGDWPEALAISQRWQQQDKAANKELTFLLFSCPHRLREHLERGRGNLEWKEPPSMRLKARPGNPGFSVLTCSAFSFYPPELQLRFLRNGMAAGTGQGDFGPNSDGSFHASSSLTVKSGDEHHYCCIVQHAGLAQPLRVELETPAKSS
T9 sequence (Q8SPW0 21-119 limits assumed, chain 2 of 2): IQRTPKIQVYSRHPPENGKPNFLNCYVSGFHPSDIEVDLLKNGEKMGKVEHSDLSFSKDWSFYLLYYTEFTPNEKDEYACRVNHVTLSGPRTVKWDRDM

Row | EC50, inhibition of EGF-induced EGFR phosphorylation (phospho-EGFR ELISA, A-431 cells), Exp.2 (human EGFR on cells [1]) [µg/mL] | Kd (human EGFR on cells [2]) [nM] | Kd [3] [nM] | Kd [6] [nM] | EC50 (read off the curve) (CD16A-antigen (ELISA)) [nM] | EC50 (read off the curve) (EGFR-antigen (ELISA)) [nM] | EC50 (read off the curve) [7] [nM] | EC50 (read off the curve) (EGFR-mFc) [µg/mL] | EC50 (read off the curve) (huCD16A^RV-His) [nM] | Kd [8] [nM] | Kd (Human FcRn (FCGRT/B2M)) [nM] | Kd (Mouse FcRn (FCGRT/B2M)) [nM] | Kd [9] [nM] | EC50 (read off the curve) (human EGFR on cells [10]) [nM] | Binder | EC50 [pM] mean, 4 h calcein-release cytotoxicity, HCT-116 target cells, human NK-cells E:T 5:1 (human EGFR on cells [4]) [pM] | EC50 [pM] mean, 4 h calcein-release cytotoxicity, A-431 target cells, human NK-cells E:T 5:1 (human EGFR on cells [5]) [pM]
1 | > 100 | 2 |  |  |  |  |  |  |  |  |  |  |  |  | scFv-IgAb_01 (bispecific antibody) chain 1: QVQLQESGPGLVKPSETLSLTCTVSGGSVSSGSYYWSWIRQPPGKGLEWIGYIYYSGSTNYNPSLKSRVTISVDTSKNQFSLKLSSVTAADTAVYYCARNPISIPAFDIWGQGTMVTVSSASTKGPSVFPLAPSSKSTSGGTAALGCLVKDYFPEPVTVSWNSGALTSGVHTFPAVLQSSGLYSLSSVVVPSSSLGTQTYICNVNHKPSNTKVDKKVEPKSCDKTHTCPPCPAPEFEGGPSVFLFPPKPKDTLMISRTPEVTCVVVAVSHEDPEVKFNWYVDGVEVHNAKTKPREEQYNSTYRVVSVLTVLHQDWLNGKEYKCKVSNKALPAPIEKTISKAKGQPREPQVYTLPPSREEMTKNQVSLTCLVKGFYPSDIAVEWESNGQPENNYKTTPPVLDSDGSFFLYSKLTVDKSRWQQGNVFSCSVMHEALHNHYTQKSLSLSPGGGGGSGGGGSSYVLTQPSSVSVAPGQTATISCGGHNIGSKNVHWYQQRPGQSPVLVIYQDNKRPSGIPERFSGSNSGNTATLTISGTQAMDEADYYCQVWDNYSVLFGGGTKLTVLGGSGGSGGSGGSGGSGGSGGSQVQLVQSGAEVKKPGESLKVSCKASGYTFTSYYMHWVRQAPGQGLEWMGIINPSGGSTSYAQKFQGRVTMTRDTSTSTVYMELSSLRSEDTAVYYCARGSAYYYDFADYWGQGTLVTVSS chain 2: QPVLTQPPSVSVAPGKTARITCGGNNIGSKSVHWYQQKPGQAPVLVIYYDSDRPSGIPERFSGSNSGNTATLTISRVEAGDEADYYCQVWDTSSDHVLFGGGTKLTVLGQPKAAPSVTLFPPSSEELQANKATLVCLISDFYPGAVTVAWKADSSPVKAGVETTTPSKQSNNKYAASSYLSLTPEQWKSHRSYSCQVTHEGSTVEKTVAPTECS |  | 
2 |  |  | 50.8 | 456 | ~4 | ~7 |  |  |  |  |  |  |  |  | EGFR/CD16A/HSA aTriFlex (other, also called EGFR/CD16A aTriFlex) chain 1: QVQLQESGPGLVKPSETLSLTCTVSGGSVSSGSYYWSWIRQPPGKGLEWIGYIYYSGSTNYNPSLKSRVTISVDTSKNQFSLKLSSVTAADTAVYYCARNPISIPAFDIWGQGTMVTVSSGGSGGSGGSGGSGGSGGSQPVLTQPPSVSVAPGKTARITCGGNNIGSKSVHWYQQKPGQAPVLVIYYDSDRPSGIPERFSGSNSGNTATLTISRVEAGDEADYYCQVWDTSSDHVLFGGGTKLTVLGGSGGSGGSSYVLTQPSSVSVAPGQTATISCGGHNIGSKNVHWYQQRPGQSPVLVIYQDNKRPSGIPERFSGSNSGNTATLTISGTQAMDEADYYCQVWDNYSVLFGGGTKLTVLGGSGGSGGSSYVLTQPSSVSVAPGQTATISCGGHNIGSKNVHWYQQRPGQSPVLVIYQDNKRPSGIPERFSGSNSGNTATLTISGTQAMDEADYYCQVWDNYSVLFGGGTKLTVLGGSGGSGGSEVQLLESGGGLVQPGGSLRLSCAVSGIDLSNYAINWVRQAPGKGLEWIGIIWASGTTFYATWAKGRFTISRDNSKNTVYLQMNSLRAEDTAVYYCARTVPGYSTAPYFDLWGQGTLVTVSSGGSGGSGGSGGSGGSGGSDIQMTQSPSSVSASVGDRVTITCQSSPSVWSNFLSWYQQKPGKAPKLLIYEASKLTSGVPSRFSGSGSGTDFTLTISSLQPEDFATYYCGGGYSSISDTTFGGGTKVEIK chain 2: QVQLVQSGAEVKKPGESLKVSCKASGYTFTSYYMHWVRQAPGQGLEWMGIINPSGGSTSYAQKFQGRVTMTRDTSTSTVYMELSSLRSEDTAVYYCARGSAYYYDFADYWGQGTLVTVSSGGSGGSGGSQVQLVQSGAEVKKPGESLKVSCKASGYTFTSYYMHWVRQAPGQGLEWMGIINPSGGSTSYAQKFQGRVTMTRDTSTSTVYMELSSLRSEDTAVYYCARGSAYYYDFADYWGQGTLVTVSS | 17.6 | 5.1
3 |  |  | 5 |  |  |  | ~6 | ~0.02 | ~4 | 20 | 410 | 121 | 268 | ~2 | Bi-scFv-Fc_02 (bispecific antibody, human IgG1, Homodimer: anti-CD16A scFv-Hinge-CH2-CH3 (silenced)-anti-EGFR scFv; also called EGFR/CD16A Bi-scFv-Fc; Bi-scFv-Fc_2) SYVLTQPSSVSVAPGQTATISCGGHNIGSKNVHWYQQRPGQSPVLVIYQDNKRPSGIPERFSGSNSGNTATLTISGTQAMDEADYYCQVWDNYSVLFGGGTKLTVLGGSGGSGGSGGSGGSGGSGGSQVQLVQSGAEVKKPGESLKVSCKASGYTFTSYYMHWVRQAPGQGLEWMGIINPSGGSTSYAQKFQGRVTMTRDTSTSTVYMELSSLRSEDTAVYYCARGSAYYYDFADYWGQGTLVTVSSEPKSCDKTHTCPPCPAPEFEGGPSVFLFPPKPKDTLMISRTPEVTCVVVAVSHEDPEVKFNWYVDGVEVHNAKTKPREEQYNSTYRVVSVLTVLHQDWLNGKEYKCKVSNKALPAPIEKTISKAKGQPREPQVYTLPPSREEMTKNQVSLTCLVKGFYPSDIAVEWESNGQPENNYKTTPPVLDSDGSFFLYSKLTVDKSRWQQGNVFSCSVMHEALHNHYTQKSLSLSPGGGGGSGGGGSQVQLQESGPGLVKPSETLSLTCTVSGGSVSSGSYYWSWIRQPPGKGLEWIGYIYYSGSTNYNPSLKSRVTISVDTSKNQFSLKLSSVTAADTAVYYCARNPISIPAFDIWGQGTMVTVSSGGSGGSGGSGGSGGSGGSQPVLTQPPSVSVAPGKTARITCGGNNIGSKSVHWYQQKPGQAPVLVIYYDSDRPSGIPERFSGSNSGNTATLTISRVEAGDEADYYCQVWDTSSDHVLFGGGTKLTVL | 3.8 | 2.7
